Data reported in US20230357447A1 (JANUX THERAPEUTICS, published 2023).

Each binder was assayed against T1, anti-CD28 scFv (VH-linker 1-VL) (biotinylated (site not stated)) (assay: phage ELISA; scFv wells pre-incubated with soluble CD28 (competitor);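 further: crude clonal phage supernatants added to wells pretreated with soluble CD28 in blocking buffer, bound phage read via HRP-linked anti-M13 antibody, reference wells got blocking buffer only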).
T1 construct: Captured as biotinylated scFv on neutravidin coated plates in the phage ELISA
T1 sequence (scFv, as listed by the source): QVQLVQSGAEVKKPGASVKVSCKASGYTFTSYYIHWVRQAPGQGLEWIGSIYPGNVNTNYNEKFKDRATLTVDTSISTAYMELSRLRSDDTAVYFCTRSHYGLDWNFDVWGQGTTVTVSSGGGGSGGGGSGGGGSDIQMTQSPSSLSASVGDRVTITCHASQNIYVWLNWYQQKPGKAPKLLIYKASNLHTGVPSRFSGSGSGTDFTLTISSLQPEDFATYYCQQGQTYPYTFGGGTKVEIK

Binder	CD28 scFv signal in presence of CD28
MDWCPRNMWHHCFD (on phage (pIII fusion)) [Phage-248 clonal phage peptide]	0.524
MDWCPPYLWSECFA (on phage (pIII fusion)) [Phage-238 clonal phage peptide]	0.234
MDWCPRYLWSECFA (on phage (pIII fusion)) [Phage-254 clonal phage peptide]	0.513
MDWCPRHLWHECYS (on phage (pIII fusion)) [Phage-241 clonal phage peptide]	0.374
MDWCPSDMWAHCYN (on phage (pIII fusion)) [Phage-249 clonal phage peptide]	0.109
MVGCATSMWNRCLT (on phage (pIII fusion)) [Phage-253 clonal phage peptide]	0.746
MDWCPKHLWTECFA (on phage (pIII fusion)) [Phage-242 clonal phage peptide]	0.145
MDWCPFDLWHVCYN (on phage (pIII fusion)) [Phage-256 clonal phage peptide]	0.651
MDWCARFVGYGCLD (on phage (pIII fusion)) [Phage-232 clonal phage peptide]	0.074
MDWCPKVMWHYCFA (on phage (pIII fusion)) [Phage-250 clonal phage peptide]	0.252
MDWCPMFLWHECFN (on phage (pIII fusion)) [Phage-309 clonal phage peptide]	0.591
MDWCPRFLWHECFN (on phage (pIII fusion)) [Phage-257 clonal phage peptide]	0.351
VPWCLIISGLDCLN (on phage (pIII fusion)) [Phage-231 clonal phage peptide]	0.09
MDWCPRFMWSECFS (on phage (pIII fusion)) [Phage-251 clonal phage peptide]	0.137
MDWCPRNLWHLCFA (on phage (pIII fusion)) [Phage-245 clonal phage peptide]	0.164
VPWCQIISGLECLT (on phage (pIII fusion)) [Phage-229 clonal phage peptide]	0.077
APWCQIISGLECLT (on phage (pIII fusion)) [Phage-230 clonal phage peptide]	0.078
MDWCPRYLWHVCFN (on phage (pIII fusion)) [Phage-239 clonal phage peptide]	0.409
MDWCPRYLWHVCFD (on phage (pIII fusion)) [Phage-302 clonal phage peptide]	0.31
MDWCPRSLWHVCFN (on phage (pIII fusion)) [Phage-258 clonal phage peptide]	0.238
MDWCPRTLWHVCFN (on phage (pIII fusion)) [Phage-240 clonal phage peptide]	0.551

Binder	CD28 scFv signal in presence of CD28
MDWCPRYLWHECFS (on phage (pIII fusion)) [Phage-235 clonal phage peptide]	0.303
MDWCPRDLWTECFS (on phage (pIII fusion)) [Phage-305 clonal phage peptide]	0.174
MDWCPRYLWHECFF (on phage (pIII fusion)) [Phage-301 clonal phage peptide]	0.682
MDWCPRYLWHVCFY (on phage (pIII fusion)) [Phage-291 clonal phage peptide]	1.14
MDWCPSYLWHECFF (on phage (pIII fusion)) [Phage-237 clonal phage peptide]	0.447
MDWCPRHLWSVCFN (on phage (pIII fusion)) [Phage-255 clonal phage peptide]	0.825
MDWCPRYLWTECFS (on phage (pIII fusion)) [Phage-303 clonal phage peptide]	0.329
MDWCPRYLWHECFD (on phage (pIII fusion)) [Phage-244 clonal phage peptide]	0.177
MDWCPRHLWHVCFN (on phage (pIII fusion)) [Phage-264 clonal phage peptide]	0.636
MDWCPRFMWAECFN (on phage (pIII fusion)) [Phage-247 clonal phage peptide]	0.341
MDWCPRHLWFECFN (on phage (pIII fusion)) [Phage-293 clonal phage peptide]	0.171
MDWCPRHLWNECFA (on phage (pIII fusion)) [Phage-306 clonal phage peptide]	0.17
MDWCPRHLWNECFN (on phage (pIII fusion)) [Phage-283 clonal phage peptide]	0.393
MDWCPIHLWNECFN (on phage (pIII fusion)) [Phage-314 clonal phage peptide]	0.157
MDWCPRHLWYECFN (on phage (pIII fusion)) [Phage-243 clonal phage peptide]	0.167
MDWCPRALWFECFF (on phage (pIII fusion)) [Phage-234 clonal phage peptide]	0.331
MDWCPRHLWFECFF (on phage (pIII fusion)) [Phage-300 clonal phage peptide]	0.479
MDWCPKHLWNKCFN (on phage (pIII fusion)) [Phage-246 clonal phage peptide]	0.092
MDWCPRHMWINCFA (on phage (pIII fusion)) [Phage-252 clonal phage peptide]	0.165
MTWCPTSFWNRCLD (on phage (pIII fusion)) [Phage-233 clonal phage peptide]	0.405

The binders below were run against T1, anti-CD28 scFv (VH-linker 1-VL) (assay: phage ELISA; biotinylated scFv on neutravidin plate; anti-M13-HRP;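 further: crude clonal phage supernatant added to wells pre-incubated with soluble CD28 protein or only blocking buffer, then washed, bound phage read out with an HRP-linked anti-M13 antibody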).
Procedure: Clonal phage were harvested as crude supernatants and screened via standard enzyme linked immunosorbent assays (ELISAs). […] Prior to the addition of clonal phage, wells were incubated with blocking buffer and CD28 soluble protein or blocking buffer alone. Without washing or aspirating, clonal phage supernatants were then added to the wells and incubated for a short time. Wells were then washed followed by detection of bound phage using a horse radish peroxidase conjugated anti-M13 antibody.

Binder	CD28 scFv signal
MDWCPRNMWHHCFD (on phage (pIII fusion)) [Phage-248 clonal phage peptide]	1.6
MDWCPPYLWSECFA (on phage (pIII fusion)) [Phage-238 clonal phage peptide]	2.6
MDWCPRYLWSECFA (on phage (pIII fusion)) [Phage-254 clonal phage peptide]	2.71
MDWCPRHLWHECYS (on phage (pIII fusion)) [Phage-241 clonal phage peptide]	2.58
MDWCPSDMWAHCYN (on phage (pIII fusion)) [Phage-249 clonal phage peptide]	1.21
MVGCATSMWNRCLT (on phage (pIII fusion)) [Phage-253 clonal phage peptide]	0.77
MDWCPKHLWTECFA (on phage (pIII fusion)) [Phage-242 clonal phage peptide]	2.49
MDWCPFDLWHVCYN (on phage (pIII fusion)) [Phage-256 clonal phage peptide]	2.6
MDWCARFVGYGCLD (on phage (pIII fusion)) [Phage-232 clonal phage peptide]	0.065
MDWCPKVMWHYCFA (on phage (pIII fusion)) [Phage-250 clonal phage peptide]	1.14
MDWCPMFLWHECFN (on phage (pIII fusion)) [Phage-309 clonal phage peptide]	2.38
MDWCPRFLWHECFN (on phage (pIII fusion)) [Phage-257 clonal phage peptide]	2.59
VPWCLIISGLDCLN (on phage (pIII fusion)) [Phage-231 clonal phage peptide]	0.107
MDWCPRFMWSECFS (on phage (pIII fusion)) [Phage-251 clonal phage peptide]	1.01
MDWCPRNLWHLCFA (on phage (pIII fusion)) [Phage-245 clonal phage peptide]	1.4
VPWCQIISGLECLT (on phage (pIII fusion)) [Phage-229 clonal phage peptide]	0.174
APWCQIISGLECLT (on phage (pIII fusion)) [Phage-230 clonal phage peptide]	0.169
MDWCPRYLWHVCFN (on phage (pIII fusion)) [Phage-239 clonal phage peptide]	2.6
MDWCPRYLWHVCFD (on phage (pIII fusion)) [Phage-302 clonal phage peptide]	2.44
MDWCPRSLWHVCFN (on phage (pIII fusion)) [Phage-258 clonal phage peptide]	2.41
MDWCPRTLWHVCFN (on phage (pIII fusion)) [Phage-240 clonal phage peptide]	2.6

Binder	CD28 scFv signal
MDWCPRYLWHECFS (on phage (pIII fusion)) [Phage-235 clonal phage peptide]	2.65
MDWCPRDLWTECFS (on phage (pIII fusion)) [Phage-305 clonal phage peptide]	2.4
MDWCPRYLWHECFF (on phage (pIII fusion)) [Phage-301 clonal phage peptide]	2.45
MDWCPRYLWHVCFY (on phage (pIII fusion)) [Phage-291 clonal phage peptide]	2.5
MDWCPSYLWHECFF (on phage (pIII fusion)) [Phage-237 clonal phage peptide]	2.61
MDWCPRHLWSVCFN (on phage (pIII fusion)) [Phage-255 clonal phage peptide]	2.65
MDWCPRYLWTECFS (on phage (pIII fusion)) [Phage-303 clonal phage peptide]	2.42
MDWCPRYLWHECFD (on phage (pIII fusion)) [Phage-244 clonal phage peptide]	2.07
MDWCPRHLWHVCFN (on phage (pIII fusion)) [Phage-264 clonal phage peptide]	2.67
MDWCPRFMWAECFN (on phage (pIII fusion)) [Phage-247 clonal phage peptide]	2.6
MDWCPRHLWFECFN (on phage (pIII fusion)) [Phage-293 clonal phage peptide]	2.49
MDWCPRHLWNECFA (on phage (pIII fusion)) [Phage-306 clonal phage peptide]	2.39
MDWCPRHLWNECFN (on phage (pIII fusion)) [Phage-283 clonal phage peptide]	2.65
MDWCPIHLWNECFN (on phage (pIII fusion)) [Phage-314 clonal phage peptide]	2.35
MDWCPRHLWYECFN (on phage (pIII fusion)) [Phage-243 clonal phage peptide]	2.41
MDWCPRALWFECFF (on phage (pIII fusion)) [Phage-234 clonal phage peptide]	2.67
MDWCPRHLWFECFF (on phage (pIII fusion)) [Phage-300 clonal phage peptide]	2.45
MDWCPKHLWNKCFN (on phage (pIII fusion)) [Phage-246 clonal phage peptide]	1.16
MDWCPRHMWINCFA (on phage (pIII fusion)) [Phage-252 clonal phage peptide]	0.92
MTWCPTSFWNRCLD (on phage (pIII fusion)) [Phage-233 clonal phage peptide]	0.392
